Data taken from US20110171242A1.

Biological target: LTβR (whole, in cells) (human) (UniProt P36941)
Assay: cell-based or functional assay

IC50 for inhibition of HCMV pp28 expression (western blot): 1 nM
inhibition of the cytopathic effect of HCMV, against LTα and LIGHT: 10 fold
Substance: recombinant soluble LTα1β2 (from UniProt P01374 35-205; Q06643 49-244) (ligand)
